Measured values as given in publication PMC9672333 (2022).

Molecular target: Wild type spike RBD (UniProt P0DTC2) (SARS-CoV-2, UniProt P0DTC2 319-541)

| Binder | Kd [nM] |
| --- | --- |
| Imdevimab (antibody, V domains shown) VH: QVQLVESGGGVVQPGRSLRLSCAASGFTFSNYAMYWVRQAPGKGLEWVAVISYDGSNKYYADSVKGRFTISRDNSKNTLYLQMNSLRTEDTAVYYCASGSDYGDYLLVYWGQGTLVTVSS VL: QSALTQPASVSGSPGQSITISCTGTSSDVGGYNYVSWYQQHPGKAPKLMIYDVSKRPSGVSNRFSGSKSGNTASLTISGLQSEDEADYYCNSLTSISTWVFGGGTKLTVL | 65 |
| Tixagevimab Biosimilar (antibody, V domains shown) VH: QMQLVQSGPEVKKPGTSVKVSCKASGFTFMSSAVQWVRQARGQRLEWIGWIVIGSGNTNYAQKFQERVTITRDMSTSTAYMELSSLRSEDTAVYYCAAPYCSSISCNDGFDIWGQGTMVTVSS VL: not shown | 0.6 |
| Casirivimab (antibody, V domains shown) VH: QVQLVESGGGLVKPGGSLRLSCAASGFTFSDYYMSWIRQAPGKGLEWVSYITYSGSTIYYADSVKGRFTISRDNAKSSLYLQMNSLRAEDTAVYYCARDRGTTMVPFDYWGQGTLVTVSS VL: DIQMTQSPSSLSASVGDRVTITCQASQDITNYLNWYQQKPGKAPKLLIYAASNLETGVPSRFSGSGSGTDFTFTISGLQPEDIATYYCQQYDNLPLTFGGGTKVEIK | 0.8 |
